In US20220356237A1 (UNIVERSITY OF MIAMI, published 2022):

Tests used:
[1] = biological target: T1, human secretogranin III (Scg3) (human, UniProt Q8WXD2 20-468, limits assumed); assay: method not given; protein pulldown with protein G beads at 5 ug/ml each is described in paragraph 100
T1 construct: also called human Scg3; 1B1075
Protocol: Protein pulldown. Scg3 (5 μg/ml) was incubated with aflibercept, VEGFR-Fc or VEGFR2-Fc (5 μg/ml) in PBS solution containing 0.5% Triton X-100 and BSA (1 mg/ml) for 1 h at 4° C. Protein G beads (20 μl) were added and incubated at 4° C. for 30 min with end-over-end rotation. The beads were washed three times with PBS by centrifugation, eluted with low pH buffer (100 mM glycine, pH 2.7) and analyzed by Western blot using anti-Scg3 pAb.

[2] = biological target: T1, human secretogranin III (Scg3); assay: ELISA on immobilised Scg3 and Octet RED96
Protocol: (§1) Competitive binding to Scg3 was evaluated for Clone 49 and the other anti-Scg3 mAbs described in Table 1. Anti-Scg3 scFv Clone 49 (FIG. 3D) and Clone 78 (FIG. 3E) were expressed and purified. […] Bound scFv was detected by ELISA assay. Binding assays were also performed using an Octet RED96 system (Pall ForteBio), as described in Estep et al., MAbs 2013; 5:270-278.

[3] = biological target: T1, human secretogranin III (Scg3); assay: competition ELISA (excess mAb against Clone 78 scFv) and Octet RED96
Protocol: as §1

T1 sequence (Q8WXD2 20-468 limits assumed): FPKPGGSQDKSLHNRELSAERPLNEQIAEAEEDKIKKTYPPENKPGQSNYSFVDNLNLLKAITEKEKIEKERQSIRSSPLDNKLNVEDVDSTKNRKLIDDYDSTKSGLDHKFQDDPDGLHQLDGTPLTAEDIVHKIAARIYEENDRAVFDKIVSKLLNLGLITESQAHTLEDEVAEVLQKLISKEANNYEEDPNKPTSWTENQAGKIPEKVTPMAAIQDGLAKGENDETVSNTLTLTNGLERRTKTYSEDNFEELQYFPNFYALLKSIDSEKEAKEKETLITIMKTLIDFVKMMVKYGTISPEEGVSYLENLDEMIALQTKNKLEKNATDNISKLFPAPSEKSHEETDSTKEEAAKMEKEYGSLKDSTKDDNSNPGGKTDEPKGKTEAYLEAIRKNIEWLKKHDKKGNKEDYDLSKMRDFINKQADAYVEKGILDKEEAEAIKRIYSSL

| binding result [2] | binding result [3] | Binder | further results |
| --- | --- | --- | --- |
|  |  | aflibercept (Fc fusion, UniProt P17948 129-230, looked up, also called EYLEA; not shown: human IgG Fc) SDTGRPFVEMYSEIPEIIHMTEGRELVIPCRVTSPNITVTLKKFPLDTLIPDGKRIIWDSRKGFIISNATYKEIGLLTCEATVNGHLYKTNYLTHRQTNTIIDVVLSPSHGIELSVGEKLVLNCTARTELNVGIDFNWEYPSSKHQHKKLVNRDLKTQSGSEMKKFLSTLTIDGVTRSDQGLYTCAASSGLMTKKNSTFVRVHEK | binding result [1]: no binding |
| binds |  | anti-Scg3 mAb Clone 49 (antibody, V domains shown, also called Clone 49 mAb; CLONE 49 Monoclonal Antibody) VH: EVKLEESGAELVKPGASVKLSCTASGFNIKDTYMHWVKQRPEQGLEWIGRIDPANGDTKYDPKFQGKATITADTSSNTAYLQLSSLTSEDTAVYYCARNGPGTPWFAYWGQGTLVTVSA VL: DIQMTQSSSYLSVSLGGRVTITCKASDHINNWLTWYQQKPGNAPRLLISGATSLETGVPSRFSGSGSGKDYTLSITSLQTEDVATYYCQQYWSTPFTFGSGTKLEIKR |  |
|  | binds | anti-Scg3 mAb Clone 153 (antibody, V domains shown, Monoclonal antibody) VH: GRKLQESGPELLKPGASVKISCKTSGYIFSTSWMNWVKQRPGQGLEWIGRIYPGDGHTNYNGKFKDKATLTADKSSSTAYMQLSSLTSVDSAVYFCARSADGYFFVYWGQGTLVTVSA VL: DIVLTQTPLSLPVSLGDQASISCRSSQSIVHSNGNTYLEWYLQKPGQSPKLLIFKVSKRFSGVPDRFSGSGSGTDFTLKISRVEAEDLGVYHCFQGSHVPPTFGGGTKLEIKR |  |
| binds |  | anti-Scg3 mAb Clone 78 (antibody, V domains shown, also called Clone 78 mAb; CLONE 78 Monoclonal Antibody) VH: EVQLQQSGPELLKPGASVKISCKTSGYIFSASWMNWVKQRPGQGLEWIGRIYPGDGHTNYNGKIKDKATLTADKSSSTAYMQLSSLTSVDSAVYFCARSADGYFFVDWGQGTLVTVSA VL: DIVMTQTPVSLPVSLGDQASISCRSSQSIVHSNGNTYLEWYLQKPGQSPKLLIFKVSKRFYGVPDRFSGSGSGTDFTLKISRVEAEDLGVYHCFQGSHVPPTFGGGTKLEIKR |  |
|  | binds | anti-Scg3 mAb Clone 162 (antibody, V domains shown, Monoclonal antibody) VH: PGKAEESGPEMLKPGASVKISCKTSGYIFSTSWMNWVKQRPGQGLEWIGRIYPGDGHTNYNGKFKDKATLTADKSSSTAYMQLSSLTSADSAVYFCARSADGYFFVYWGQGTLVTVSA VL: DIVLTQTPLSLPVSLGDQASISCRSSQNIIHSNGNTYLEWYLQKPGQSPKLLIFKVSKRFSGVPDRFSGSGSGTDFTLKISRVEAEDLGVYHCFQGSHVPPTFGGGTKLEIKR |  |
|  | binds | anti-Scg3 mAb Clone 190 (antibody, V domains shown, Monoclonal antibody; also called CLONE 190 Monoclonal Antibody) VH: EVKLEESGPELLKPGASVKISCKTSGYIFSSSWMNWVKQRPGQGLEWIGRIYPGDGHTNYNGKFKDKATLTADKSSSTAYMQLSSLTSVDSAVYFCARSADGYFFVYWGQGTPVTVSA VL: DIVMTQSPLSLPVSLGDQASISCRSSQSIVHSNGNTYLEWYLQKPGQSPKLLIFKVSKRFSGVPDRFSGSGSGTDFTLKISRVGAEDLGIYYCFQGSHVPPTFGGGTKLEIKR |  |
